Experimental data taken from the RNAGym collection of RNA variant scans (doi:10.7554/elife.80360).

B1: Hairpin Ribozyme (parent)
chain: GUCCUCUUUCACGUGCGCGUGAAAGAGAGAAGUGAACCAGAGAAACACACGUUGUGGUAUAUUACCUGGUA

Variants of: B1
Experiment: self-cleavage, relative activity (ratio to wild type); higher = more cleavage; co-transcriptional

Variant | self-cleavage
A31U A45C | 0.191
U33C A44C | 0.226
A31C G54C | 0.198
A31C G54U | 0.0998
A30U G56C | 0.15
A31C U33C | 0.18
A31C A35G | 0.13
G32U C50G | 0.162
G32U C50U | 0.119
U33C A41G | 0.193
U33A A41U | 0.111
G32U A59G | 0.181
G32C G68A | 0.097
G32A A35G | 0.142
G32A A35U | 0.153
G32A A45G | 0.117
G32C A36C | 0.159
G32U A35C | 0.107
G32A C66A | 0.147
G32A C66G | 0.144
G32U C66A | 0.229
U33A A59U | 0.177
U33A A59C | 0.143
G32U U60G | 0.0848

Variant | self-cleavage
A31G U55G | 0.0654
U33A A39U | 0.0937
U33A A39G | 0.122
U33A U52A | 0.122
U33C G42A | 0.0915
G32A G51A | 0.156
A31C U60A | 0.157
A31C U53C | 0.0661
A31C U53G | 0.176
U33A G56C | 0.11
G32C U70G | 0.0915
A31C A41U | 0.109
A31C A41G | 0.102
A31U A64U | 0.134
G32A U62G | 0.0972
A31C G34A | 0.163
G32U G51C | 0.148
A31C U62G | 0.223
A31G A39G | 0.192
A31G G51C | 0.495
G32C A61C | 0.222
G32A | 0.153
G32U | 0.13
G32C | 0.127

Variant | self-cleavage
U33C C65G | 0.138
U33C C65A | 0.159
A31C A49C | 0.149
A31C A49U | 0.151
A31C U70A | 0.131
G32A G54C | 0.117
A31U G32U | 0.125
G32C A35U | 0.132
G32A C38U | 0.0584
A31U A35G | 0.244
A31G G54A | 0.378
A31G G54U | 0.223
U33C A39U | 0.0555
A31U G34C | 0
G32A C48U | 0.154
G32U A41U | 0.0937
G32U A41C | 0.105
G32A U33A | 0.139
A31C A44C | 0.128
A31G U67G | 0.337
G32A C50U | 0.101
G32C A49U | 0.0382
G32C A49G | 0.189
A31U G68U | 0.206

Variant | self-cleavage
A31U C38A | 0.0669
A31G A36G | 0.57
G32A G34U | 0.798
G32C U33A | 0.168
G32A G42U | 0.186
A31G | 0.729
A31U | 0.129
A31C | 0.131
A31G A64U | 0.215
A31U A59G | 0.0459
G32A G57U | 0.118
G32C C46A | 0.109
A31C A45U | 0.0614
A31C A45G | 0.0362
G32U C65A | 0.064
G32U C65G | 0.104
G32U C65U | 0.115
A31U G42U | 0.0854
G32C U67A | 0.134
G32C U67G | 0.148
A31G A59U | 0.184
A31G A59G | 0.205
G32C G51U | 0.154
U33A C66A | 0.0709

Variant | self-cleavage
U33A C66U | 0.151
G32A U63G | 0.126
G32U U52A | 0.155
G32U U52G | 0.0995
A30U U58C | 0.107
A30U U58G | 0.155
G32U A71U | 0.131
A31G A49G | 0.241
A31G A49C | 0.162
A31G U63C | 0.105
A31G U63A | 0.144
A31C G69U | 0.0958
G32U G34A | 0.133
A31G G57A | 0.0901
A31G G57C | 0.121
G32U G69C | 0.136
A31G A43G | 0.207
A31G A43C | 0.0574
U33A U70G | 0.253
U33A U70C | 0.119
G32C C38A | 0.061
G32C G34A | 0.132
A31U G54A | 0.151
A31U G54U | 0.0633

Variant | self-cleavage
A31U C50G | 0.152
A31U C50U | 0.24
A31U C50A | 0.113
U33C A71C | 0.63
U33C A71G | 0.241
G32U A61C | 0.157
U33A G57C | 0.157
U33A G57A | 0.137
U33C A36C | 0.199
U33C A36U | 0.0847
U33C A64G | 0.0772
U33C A64C | 0.102
A31G C46G | 0.0961
A31G C46U | 0.142
A31G C46A | 0.155
U33C A47C | 0.106
A31C U55C | 0.208
G32U G56U | 0.145
U33C C38A | 0.087
U33A G54U | 0.186
U33A G54A | 0.213
U33C G56U | 0.26
A31G A71G | 0.651
A31G A44C | 0.188

Variant | self-cleavage
U33A C48A | 0.0899
G32A G69A | 0.0516
U33G A36U | 0.129
G32A G56U | 0.221
G32A G56A | 0.179
A31C G42U | 0.092
A31C G42C | 0.163
A31G G69C | 0.199
G32C G54C | 0.16
G32A G40A | 0.136
G32A G40U | 0.0775
A31U C37U | 0.187
U33C G51U | 0.144
U33C G51A | 0.231
G32C C66U | 0.04
A31U A71C | 0.227
A31U A71U | 0.172
A31U A71G | 0.226
G32A C37G | 0.0907
A31G U33G | 0
G32A A47U | 0.125
G32A A47G | 0.133
U33A C65G | 0.225
U33A C65A | 0.225

Variant | self-cleavage
U33G A47C | 0.0542
U33A U55C | 0.149
A31U C65A | 0.127
A31U U67C | 0.0741
G32C A39G | 0.111
U33C A43G | 0.196
G32U U58A | 0.0967
A31U U58A | 0.026
A31U U33A | 0.0513
A31C C48A | 0.115
A31C C48G | 0.103
A31G U62C | 0.0965
G32U A47C | 0.167
A31C C37G | 0.146
G32A U60C | 0.256
G32A U60G | 0.197
G32A U52G | 0.141
G32A U52A | 0.24
A31G U53A | 0.673
A31G U53C | 0.846
A31G C37U | 0.349
G32A U67C | 0.131
G32A U67A | 0.114
A31G C66U | 0.294

Variant | self-cleavage
G32C G69U | 0.203
G32C G42U | 0.213
G32C G42C | 0.137
G32C G42A | 0.156
A31U G56C | 0.137
U33A A45G | 0.127
U33A A45C | 0.231
A31U C66G | 0.0934
A31C A43G | 0.107
A31C A43C | 0.25
G32U A36G | 0.0896
G32U A36U | 0.101
U33C A45C | 0.124
U33C A45U | 0.15
U33C A35G | 0.192
U33C A35C | 0.12
A31U G51A | 0
G32A U55C | 0.161
G32A U55G | 0.15
A31C U52C | 0.196
A31C U52A | 0.28
G32U G54C | 0.1
U33C C66A | 0.0633
U33A G69U | 0.134

Variant | self-cleavage
U33A G69C | 0.124
U33A G69A | 0.0983
A31C A64C | 0.134
U33C A61G | 0.0977
U33C C48A | 0.0642
U33C C48G | 0.227
G32U U70A | 0.111
U33A A47C | 0.0723
A31G C50A | 0.146
G32A A61C | 0.0657
G32A A61G | 0.153
G32A A49G | 0.366
U33A G51C | 0.157
G32C G40C | 0.109
G32U U62A | 0.052
G32U U62C | 0.0761
G32U G57U | 0.162
U33G A39U | 0.0926
U33G A39G | 0.119
G32C U60G | 0.112
G32C U60A | 0.203
G32C C65A | 0.0926
A31C A39G | 0.09
A31C A39U | 0.183

Variant | self-cleavage
A30U U60C | 0.306
A30U U60G | 0.0766
U33A C46U | 0.0735
G32U G42U | 0.107
G32U G42C | 0.127
G32C A59G | 0.15
G32C A59U | 0.103
A31U A49U | 0.137
A31C C50U | 0.0888
A31C G51C | 0.182
U33C U55G | 0.418
U33A G42C | 0.14
G32A U70G | 0.165
G32A A71G | 0.183
A31G A47U | 0.0555
A31G A47C | 0.2
A31G A47G | 0.117
U33C G34A | 0.142
U33C G34C | 1.28
A31C G40A | 0.131
A31C G40U | 0.0621
A31U A43G | 0.134
U33C G57A | 0.242
G32C A41G | 0.128

Variant | self-cleavage
G32U G68A | 0.0877
G32U G68U | 0.114
A30U U33C | 0.196
U33A G68U | 0.162
A31U G69U | 0.105
G32C U58G | 0.0601
A31G G42A | 0.19
A31G G42U | 0.19
U33C U63C | 0.187
A30U U52A | 0.158
U33G A41G | 0.0864
U33A U60C | 0.263
U33A U60G | 0.0384
U33C G40U | 0.121
U33C G40A | 0.0908
U33A U67A | 0.0848
G32U C37G | 0.0126
G32A A64U | 0.204
A31U C46A | 0.236
A31U C46U | 0.205
A30U U63C | 0.0881
U33C U52G | 0.1
U33C U52A | 0.162
A31U U55A | 0.0885

Variant | self-cleavage
G32C A47C | 0.161
U33C G69C | 0.114
U33C G69A | 0.0835
U33C G68A | 0.104
U33C G68U | 0.258
A31C A47U | 0.192
A31C A47C | 0.0953
G32C C37A | 0.125
A31U U60G | 0.115
G32U C46U | 0.276
A31G G68U | 0.113
A31G A41U | 1.37
A31G A41G | 0.712
U33A A49G | 0.0427
A31C U67C | 0.0604
A31C U67A | 0.2
A31C C38U | 0.131
G32C G56U | 0.156
A31U A61U | 0.138
A31U A61C | 0.111
U33C U67A | 0.119
U33C U67C | 0.129
A31U A41U | 0
G32A G68C | 0.1

Variant | self-cleavage
G32A G68A | 0.193
G32A G68U | 0.0821
G32C A44U | 0.22
G32C A44C | 0.108
A30U U55C | 0.179
U33C U53A | 0.198
G32A C65U | 0.174
U33A A36C | 0.0569
A31U A47U | 0.141
U33G A35G | 0.126
G32C U52A | 0.0962
U33A A71U | 0.137
U33A A71C | 0.389
U33A A44G | 0.16
U33A A44C | 0.205
A31U A44C | 0.101
A31U A44U | 0.286
G32U U55G | 0.132
G32U U55C | 0.165
U33A U63C | 0.0601
U33G A43C | 0.0935
U33G A43U | 0.0768
